# Results as given in article doi:10.1101/2022.06.30.498311 (bioRxiv, 2022).
# Target: the molecule itself
# Test: crystal structure
protein,measurement,value
"Sul1 (enzyme, UniProt P0C002 1-269, looked up) MVTVFGILNLTEDSFFDESRRLDPAGAVTAAIEMLRVGSDVVDVGPAASHPDARPVSPADEIRRIAPLLDALSDQMHRVSIDSFQPETQRYALKRGVGYLNDIQGFPDPALYPDIAEADCRLVVMHSAQRDGIATRTGHLRPEDALDEIVRFFEARVSALRRSGVAADRLILDPGMGFFLSPAPETSLHVLSNLQKLKSALGLPLLVSVSRKSFLGATVGLPVKDLGPASLAAELHAIGNGADYVRTHAPGDLRSAITFSETLAKFRSR",binding result,binds
